Several values for one entry are separate records, joined by “and”; a condition that tells them apart may be missing. Identical values can stand only once.
Biological target: empty AAV8 capsid (recombinant adeno-associated virus serotype 8, no genome) (adeno-associated virus 8 (AAV8)) (UniProt Q8JQF8)
Assay: native MS; charge detection mass spectrometry (CDMS) of single ions; nanoelectrospray from 200 mM ammonium acetate pH 7.5 after exchange on Micro Bio-Spin columns; 100 ms trapping time; charge versus mass scatterplot; capsid with capsid (multimers of whole particles)

For “empty AAV8 capsid (recombinant adeno-associated virus serotype 8, no genome) (from UniProt Q8JQF8 1-738) (complex)”, the percent of ions that are capsid dimers was 3.8%, the percent of ions that are capsid trimers was 0.8% and the stoichiometry N was 2 and 3.

From PMC8476707
